# Laboratory results reported in paper PMC10316081.
# Experiments:
# RagA-RagC(D205A) (human) = RagA-RagC(D205A) (human) (UniProt Q7L523)
# [1] = biological target: RagA-RagC(D201A, D205A) (human) (UniProt Q7L523)
# RagA-RagC(D201A) (human) = RagA-RagC(D201A) (human) (UniProt Q7L523)
# [2] = biological target: Rag GTPase heterodimer (RagA-RagC), wild type (human) (UniProt Q7L523)
# RagA-RagC(D201R) (human) = RagA-RagC(D201R) (human) (UniProt Q7L523)
# RagA-RagC(D205K) (human) = RagA-RagC(D205K) (human) (UniProt Q7L523)
# [3] = biological target: RagA-RagC(D201R, D205K) (human) (UniProt Q7L523)
# [4] = biological target: Rag GTPase heterodimer (RagA-RagC), wild type (human) (UniProt Q7L523); remark: listed apart in the source
"kcat/KM of GATOR1[Depdc5(Y775A)]-stimulated multiple turnover GTP hydrolysis, fold decrease against wild-type Rag GTPases (fold decrease) (RagA-RagC(D205A) (human))","kcat/KM of GATOR1[Depdc5(Y775A)]-stimulated multiple turnover GTP hydrolysis, fold decrease against wild-type Rag GTPases (fold decrease) [1]","kcat/KM of GATOR1[Depdc5(Y775A)]-stimulated multiple turnover GTP hydrolysis, fold decrease against wild-type Rag GTPases (fold decrease) (RagA-RagC(D201A) (human))",kcat of GATOR1-stimulated multiple turnover GTP hydrolysis by the Rag GTPase heterodimer (dual-loaded with GTP) [2] [s⁻¹],"kcat/KM of GATOR1[Depdc5(Y775A)]-stimulated multiple turnover GTP hydrolysis, fold decrease against wild-type Rag GTPases (fold decrease) (RagA-RagC(D201R) (human))","kcat/KM of GATOR1[Depdc5(Y775A)]-stimulated multiple turnover GTP hydrolysis, fold decrease against wild-type Rag GTPases (fold decrease) (RagA-RagC(D205K) (human))","kcat/KM of GATOR1[Depdc5(Y775A)]-stimulated multiple turnover GTP hydrolysis, fold decrease against wild-type Rag GTPases (fold decrease) [3]",kcat of GATOR1-stimulated single turnover GTP hydrolysis by the Rag GTPase heterodimer (singly loaded with GTP) [4] [s⁻¹],"KM of GATOR1-stimulated multiple turnover GTP hydrolysis, fold increase against GATOR1[Depdc5(Y775A)] (fold increase) [2]","kcat of GATOR1-stimulated multiple turnover GTP hydrolysis, fold decrease against GATOR1[Depdc5(Y775A)] (fold decrease) [2]","kcat/KM of GATOR1-stimulated multiple turnover GTP hydrolysis, fold decrease against GATOR1[Depdc5(Y775A)] (fold decrease) [2]",Substance
4,7,2,0.00183,7,22,80,0.000267,–,–,–,GATOR1[Depdc5(Y775A)] (from UniProt O75140 1-1603; Q8WTW4 1-380; Q12980 1-569) (complex)
–,–,–,–,–,–,–,0.00015,8,8,64,"GATOR1[Depdc5(Y775A, R1407D)] (from UniProt O75140 1-1603; Q8WTW4 1-380; Q12980 1-569) (complex)"
